The values that follow come from paper doi:10.1101/2020.04.07.028951 (bioRxiv, 2020).

The target in data set [1] is Clostridium novyi CBS-PPase (cnPPase) (Clostridium novyi). Briefly: AUC.
Data set [2] has the same target. Briefly: cross-linking.
Data set [3] concerns the target Desulfitobacterium hafniense CBS-PPase (dhPPase), full-size (Desulfitobacterium hafniense). Briefly: enzyme activity after dilution.
Data set [4] has the same target. Briefly: AUC.
The target is the same in data set [5]. Put plainly: cross-linking.
Data set [6] concerns the target Eggerthella lenta CBS-PPase (elPPase) (Eggerthella lenta). Put plainly: AUC.
In data set [7] the target is Ethanoligenens harbinense CBS-PPase (ehPPase) (Ethanoligenens harbinense). Put plainly: AUC.
Data set [8] has the same target. Put plainly: cross-linking.
Data set [9] has as its target dhCDC, separate regulatory part of dhPPase (residues 63-306) (Desulfitobacterium hafniense). Briefly: AUC.
Data set [10] has the same target. Briefly: AUC. The source holds these as a separate data set.
The target is the same in data set [11]. Put plainly: cross-linking.
The target in data set [12] is dhPPaseΔCDC, separate catalytic part of D. hafniense CBS-PPase (Desulfitobacterium hafniense). Briefly: enzyme activity after dilution.
The target is the same in data set [13]. Briefly: AUC.
For data set [14] the target is unchanged. Put plainly: cross-linking.
The data set “cross-linking” deals with the molecule itself. Briefly: cross-linking.

As usually defined, the stoichiometry N is a count of units in the complex or per binding partner. As a reminder, the koff is the first-order rate constant of dissociation. A higher koff goes with fast dissociation.

“Clostridium novyi CBS-PPase (cnPPase) (enzyme)”: the stoichiometry N in data set [1] and in data set [2] was 4 in each case.
“Desulfitobacterium hafniense CBS-PPase (dhPPase), full-size (enzyme)” returned a percent dissociated at 3 µM in data set [3] of 10%. Further, the percent tetrameric at 1 µM in data set [3] came to 79%. Besides, the stoichiometry N in data set [4] and in data set [5] was 4 in each case.
Regarding “Eggerthella lenta CBS-PPase (elPPase) (enzyme)”, in [6], the stoichiometry N amounted to 4.
On to “Ethanoligenens harbinense CBS-PPase (ehPPase) (enzyme)”, for which the stoichiometry N was 4 in [7] and 2 in data set [8].
For “dhCDC, separate regulatory part of dhPPase (residues 63-306) (domain or fragment)”, the stoichiometry N in data set [9], in data set [10] and in [11] was 2 throughout.
In data set [12], “dhPPaseΔCDC, separate catalytic part of D. hafniense CBS-PPase (enzyme)” yielded a koff of 0.04 s⁻¹ and a percent dimeric at 5.8 µM of 37%. Moreover, in [13], the stoichiometry N turned out to be 2. In data set [14], this molecule came in with a stoichiometry N of 2.

B1: Clostridium perfringens CBS-PPase (cpPPase) (enzyme)
chain: MKDVIYITGHKNPDSDSICAALAYAEFKNKTQDTPAIPVRLGNVSQETQYILDYFGVEAPQFLETVKLKVEDLEMDKIAPLAPEVSLKMAWNIMRDKNLKSIPVADGNNHLLGMLSTSNITATYMDIWDSNILAKSATSLDNILDTLSAEAQNINEERKVFPGKVVVAAMQAESLKEFISEGDIAIAGDRAEIQAELIELKVSLLIVTGGHTPSKEIIELAKKNNITVITTPHDSFTASRLIVQSLPVDYVMTKDNLVAVSTDDLVEDVKVTMSETRYSNYPVIDENNKVVGSIARFHLISTHKKKVIQVDHNERGQSVHGLEDAEVLEIIDHHRVADIQTGNPIYFRNEPLGSTSTIVAKRFFENGIRPSREAAGLLCGAIISDTLLFKSPTCTPQDVKMCRKLAEIAGIVPETFAKEMFKAGTSLKGKSIEEIFNADFKPFTIEGVKVGVAQVNTMDIEGFMPLKGEMLDYMNQKAESMGLEMIMLLLTDIINEGSQILVAGRSPEIAEEAFKVKLEDSTTFLPGVLSRKKQVVPPLTQIITTRVSK
Take B1: the “stoichiometry N” value in “cross-linking” amounted to 4.
